Earlier results on three molecules are cited in US12370207B2, “Low-intensity treatment of hematological disorders” (Celator Pharmaceuticals, Inc., priority 2018, dated 2025).

In data set [1] the test system is hematological malignancies. The note with it: single agent, ISICT patients.
The conditions of data set [2]: population mean.

As for `Nc1ccn([C@@H]2O[C@H](CO)[C@@H](O)[C@@H]2O)c(=O)n1` [LDAC], in data set [1], the median overall survival is 7-10 months and the response rates entry was “less than 20%”.

B1: Pegfilgrastim: exogenous (recombinant) GCSF agent (protein, UniProt P09919 31-207, looked up)
Granulocyte …: TPLGPASSLPQSFLLKCLEQVRKIQGDGAALQEKLVSECATYKLCHPEELVLLGHSLGIPWAPLSSCPSQALQLAGCLSQLHSGLFLYQGLLQALEGISPELGPTLDTLQLDVADFATTIWQQMEELGMAPALQPTQGAMPAFASAFQRRAGGVLVASHLQSFLEVSYRVLRHLAQP
modifications: PEGylated, N-terminal Met (pegfilgrastim)
notes: exogenous (recombinant) GCSF agent
With B1, in data set [2], the “Fi, bioavailability of first-order absorption process” value is on record as 0.646. Further, the “CL, clearance” value in data set [2] (coefficient of equation (WTKG/70)^0.641) is 0.362 · (WTKG/70)^0.641 L/h.

B2: Filgrastim: exogenous (recombinant) GCSF agent (protein, UniProt P09919 31-207, looked up)
Granulocyte …: B1 Granulocyte …
modifications: N-terminal Met (filgrastim)
notes: as for B1
For the molecule B2, the “Fi, bioavailability of first-order absorption process” value in data set [2] is on record as 0.105.
